Measurements: US7029700B2, “Micronized freeze-dried particles” (Brown University Research Foundation, priority 2000, dated 2006)

Assays:
[1] = hGH aggregation during FLM, SEC-HPLC; type: physicochemical
Description: This frozen emulsion was then lyophilized for 48 hrs to remove both the aqueous and organic solvent.

[2] = Oral GH delivery, serum hGH by ELISA; type: in vivo; details: rats, single oral dose by gavage in corn oil
Description: CD male rats (250 to 300 g) were obtained from Charles River Laboratories. Group 1 was fed 1.24 mg of stock GH emulsified in 1 ml of USP corn oil; Group 2 was fed 50 mg of PIN microspheres (2B43099-2.47% Zn-GH in PLGA) in 1 ml of corn oil; Group 3 was fed 50 mg of PIN microspheres (2B51799 - 2.47% Stock GH, 16% FeO in PLGA) in 1 ml of corn oil. Microspheres were suspended in corn oil by vortexing followed by brief (5 s) probe sonication. Stock GH was similarly emulsified in corn oil by vortexing and probe sonication. Animals were fasted overnight, briefly anesthetized with methoxyfluorane, and formulations fed via gavage with an 18-G stainless steel feeding tube and serum from all animals obtained according to the following schedule: −1 hr (pre-feeding control), 0.5 hr, 1 hr, 2 hr, 3 hr, 4 hr, 6 hr, 24 hr, 48 hr, and 72 hr post-feeding. Serum samples obtained via tail bleeding were analyzed for hGH using the hGH specific ELISA (DSL Inc, Webster. Tex.) according to manufacturer's protocols.

hGH: Stock human growth hormone (20 mg/ml) incorporated into PLGA 50:50 by FLM under varied conditions
aggregation of best formulation combination ([1]; ethyl acetate, stock GH containing 0.2% F127, agitation time 15 s): 0.7%
Percent Aggregation (SEC-HPLC) ([1]; ethyl acetate, 15 s vortex, 0.05% F127 + T20, 24 hr): 1.9%
Percent Aggregation (SEC-HPLC) ([1]; ethyl acetate, 15 s vortex, 0.2% F127 + T20, 1 hr): 1.0/1.0%
Percent Aggregation (SEC-HPLC) ([1]; ethyl acetate, 15 s vortex, 0.2% F127 + T20, 24 hr): 1.0/1.0%
Percent Aggregation (SEC-HPLC) ([1]; ethyl acetate, 15 s vortex, 0.2% F127, 1 hr): 0.7/0.7%
Percent Aggregation (SEC-HPLC) ([1]; ethyl acetate, 15 s vortex, 0.2% F127, 24 hr): 0.7/0.7%
Percent Aggregation (SEC-HPLC) ([1]; ethyl acetate, 60 s vortex, 0.05% F127 + T20, 1 hr): 0.9%
Percent Aggregation (SEC-HPLC) ([1]; ethyl acetate, 60 s vortex, 0.05% F127 + T20, 24 hr): 1.0%
Percent Aggregation (SEC-HPLC) ([1]; ethyl acetate, 60 s vortex, 0.05% F127, 24 hr): 2.0%
Percent Aggregation (SEC-HPLC) ([1]; ethyl acetate, 60 s vortex, 0.2% F127 + T20, 1 hr): 1.1/1.1%
Percent Aggregation (SEC-HPLC) ([1]; ethyl acetate, 60 s vortex, 0.2% F127 + T20, 24 hr): 1.1/1.1%
Percent Aggregation (SEC-HPLC) ([1]; ethyl acetate, 60 s vortex, 0.2% F127, 1 hr): 1.5%
Percent Aggregation (SEC-HPLC) ([1]; ethyl acetate, 60 s vortex, 0.2% F127, 24 hr): 1.7%
Percent Aggregation (SEC-HPLC) ([1]; methylene chloride, 15 s vortex, 0.05% F127 + T20, 1 hr): 2.2%
Percent Aggregation (SEC-HPLC) ([1]; methylene chloride, 15 s vortex, 0.05% F127 + T20, 24 hr): 2.7%
Percent Aggregation (SEC-HPLC) ([1]; methylene chloride, 15 s vortex, 0.05% F127, 1 hr): 2.0%
Percent Aggregation (SEC-HPLC) ([1]; methylene chloride, 15 s vortex, 0.05% F127, 24 hr): 4.5%
Percent Aggregation (SEC-HPLC) ([1]; methylene chloride, 15 s vortex, 0.2% F127 + T20, 1 hr): 3.7%
Percent Aggregation (SEC-HPLC) ([1]; methylene chloride, 15 s vortex, 0.2% F127 + T20, 24 hr): 8.8%
Percent Aggregation (SEC-HPLC) ([1]; methylene chloride, 15 s vortex, 0.2% F127, 1 hr): 2.4%
Percent Aggregation (SEC-HPLC) ([1]; methylene chloride, 15 s vortex, 0.2% F127, 24 hr): 5.0%
Percent Aggregation (SEC-HPLC) ([1]; methylene chloride, 60 s vortex, 0.05% F127 + T20, 1 hr): 4.4%
Percent Aggregation (SEC-HPLC) ([1]; methylene chloride, 60 s vortex, 0.05% F127 + T20, 24 hr): 11.4%
Percent Aggregation (SEC-HPLC) ([1]; methylene chloride, 60 s vortex, 0.05% F127, 24 hr): 4.8%
Percent Aggregation (SEC-HPLC) ([1]; methylene chloride, 60 s vortex, 0.2% F127 + T20, 1 hr): 10.2%
Percent Aggregation (SEC-HPLC) ([1]; methylene chloride, 60 s vortex, 0.2% F127 + T20, 24 hr): 12.9%
Percent Aggregation (SEC-HPLC) ([1]; methylene chloride, 60 s vortex, 0.2% F127, 1 hr): 4.2%
Percent Aggregation (SEC-HPLC) ([1]; methylene chloride, 60 s vortex, 0.2% F127, 24 hr): 7.0%

stock GH: 1.24 mg of stock GH emulsified in 1 ml of USP corn oil
serum hGH Cmax [2]: 3.37 ± 2.14 ng/mL
